According to patent publication US7202329 (MYRIAD GENETICS, dated 2007):

Legend:
Assay in all cases: yeast two-hybrid
[1] = molecular target: T1, intersectin 1 (aa 387-611) (UniProt Q15811 387-611)
T1 construct: range 387-611
T1 sequence (looked up): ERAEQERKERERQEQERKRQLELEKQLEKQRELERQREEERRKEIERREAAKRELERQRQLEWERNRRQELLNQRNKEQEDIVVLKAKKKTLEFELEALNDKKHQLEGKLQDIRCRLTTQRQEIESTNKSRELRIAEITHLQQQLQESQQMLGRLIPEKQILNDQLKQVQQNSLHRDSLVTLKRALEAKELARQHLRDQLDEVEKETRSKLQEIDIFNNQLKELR

pallid (aa 21-172) = molecular target: T2, pallid (aa 21-172) (UniProt Q9UL45 21-172)
T2 construct: range 21-172
T2 sequence (looked up): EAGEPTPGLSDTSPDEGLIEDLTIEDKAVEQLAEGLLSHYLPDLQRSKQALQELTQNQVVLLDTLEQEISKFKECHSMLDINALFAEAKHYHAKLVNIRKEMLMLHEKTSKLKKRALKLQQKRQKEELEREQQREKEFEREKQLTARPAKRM

[2] = molecular target: T3, intersectin 1 (aa 210-633) (UniProt Q15811 210-633)
T3 construct: range 210-633
T3 sequence (looked up): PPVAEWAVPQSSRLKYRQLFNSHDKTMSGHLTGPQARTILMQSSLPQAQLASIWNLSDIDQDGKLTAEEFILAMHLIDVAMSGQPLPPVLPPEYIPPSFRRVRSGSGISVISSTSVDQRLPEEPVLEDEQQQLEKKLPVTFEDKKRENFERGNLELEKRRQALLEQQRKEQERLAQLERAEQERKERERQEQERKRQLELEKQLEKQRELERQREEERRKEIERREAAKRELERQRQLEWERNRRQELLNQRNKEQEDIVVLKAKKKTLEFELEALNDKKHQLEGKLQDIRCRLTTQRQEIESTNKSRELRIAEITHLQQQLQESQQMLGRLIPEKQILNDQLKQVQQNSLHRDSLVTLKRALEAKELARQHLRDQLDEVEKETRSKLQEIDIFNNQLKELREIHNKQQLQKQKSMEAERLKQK

[3] = molecular target: T4, GTPase-activating protein 1 (aa 1419-1657) (UniProt P46940 1419-1657)
T4 construct: range 1419-1657; also called IQGAP1; IQGAP
T4 sequence (looked up): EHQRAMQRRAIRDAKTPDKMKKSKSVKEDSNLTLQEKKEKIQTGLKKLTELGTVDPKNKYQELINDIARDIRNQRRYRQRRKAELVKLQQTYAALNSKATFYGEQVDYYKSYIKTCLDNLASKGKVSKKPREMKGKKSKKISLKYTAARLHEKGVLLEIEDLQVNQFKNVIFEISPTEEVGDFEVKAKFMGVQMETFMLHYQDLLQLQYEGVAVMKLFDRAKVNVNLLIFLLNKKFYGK

[4] = molecular target: T5, hook2 protein (aa 290-555) (UniProt Q96ED9 290-555)
T5 construct: range 290-555
T5 sequence (looked up): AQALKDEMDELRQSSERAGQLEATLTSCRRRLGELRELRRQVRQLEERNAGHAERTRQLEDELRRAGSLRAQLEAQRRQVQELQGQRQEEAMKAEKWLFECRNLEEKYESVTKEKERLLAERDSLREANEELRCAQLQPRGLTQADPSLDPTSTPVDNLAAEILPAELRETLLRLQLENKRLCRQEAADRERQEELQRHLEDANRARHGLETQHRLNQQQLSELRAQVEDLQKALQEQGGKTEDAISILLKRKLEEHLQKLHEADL

[5] = molecular target: T6, mitotic spindle coiled-coil related protein (aa 668-895) (UniProt Q96R06 668-895)
T6 construct: range 668-895
T6 sequence (looked up): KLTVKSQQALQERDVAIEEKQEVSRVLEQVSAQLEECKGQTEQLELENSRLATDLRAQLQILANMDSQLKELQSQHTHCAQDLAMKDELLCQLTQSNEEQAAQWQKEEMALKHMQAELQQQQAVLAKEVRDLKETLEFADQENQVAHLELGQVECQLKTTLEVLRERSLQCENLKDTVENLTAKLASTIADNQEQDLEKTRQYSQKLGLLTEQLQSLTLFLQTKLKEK

[6] = molecular target: T7, mitotic spindle coiled-coil related protein (aa 701-1082) (UniProt Q96R06 701-1082)
T7 construct: range 701-1082
T7 sequence (looked up): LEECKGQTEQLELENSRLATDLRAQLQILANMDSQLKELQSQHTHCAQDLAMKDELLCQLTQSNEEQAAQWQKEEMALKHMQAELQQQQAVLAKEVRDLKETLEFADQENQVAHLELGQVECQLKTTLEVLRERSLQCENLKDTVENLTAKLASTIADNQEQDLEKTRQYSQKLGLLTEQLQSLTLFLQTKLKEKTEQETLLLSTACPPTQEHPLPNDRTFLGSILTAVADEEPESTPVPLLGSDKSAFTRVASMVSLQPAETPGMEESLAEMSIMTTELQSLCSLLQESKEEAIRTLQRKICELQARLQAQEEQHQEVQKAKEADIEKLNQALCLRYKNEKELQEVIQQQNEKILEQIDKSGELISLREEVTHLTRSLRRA

[7] = molecular target: T8, hook2 protein (aa 201-559) (UniProt Q96ED9 201-559)
T8 construct: range 201-559
T8 sequence (looked up): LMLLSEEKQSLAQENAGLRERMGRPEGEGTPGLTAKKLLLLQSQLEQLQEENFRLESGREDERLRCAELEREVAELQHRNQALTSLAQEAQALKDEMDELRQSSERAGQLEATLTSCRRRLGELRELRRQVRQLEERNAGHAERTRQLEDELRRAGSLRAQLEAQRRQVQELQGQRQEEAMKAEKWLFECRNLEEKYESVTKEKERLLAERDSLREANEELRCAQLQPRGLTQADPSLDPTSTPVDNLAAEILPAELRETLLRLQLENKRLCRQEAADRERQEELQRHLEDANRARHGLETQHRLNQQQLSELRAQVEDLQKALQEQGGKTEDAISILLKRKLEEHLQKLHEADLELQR

[8] = molecular target: T9, serum deprivation response (aa 75-258) (UniProt O95810 75-258)
T9 construct: range 75-258
T9 sequence (looked up): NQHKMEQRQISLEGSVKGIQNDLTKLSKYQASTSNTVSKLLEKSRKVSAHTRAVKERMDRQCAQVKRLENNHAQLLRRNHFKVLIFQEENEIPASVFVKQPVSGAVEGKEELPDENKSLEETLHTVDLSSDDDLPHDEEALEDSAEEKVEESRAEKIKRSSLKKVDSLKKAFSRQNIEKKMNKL

Measured: binding result

B1: Tsg101 (aa 240-391) (other, human, UniProt Q99816 240-390, looked up)
chain: WRMKEEMDRAQAELNALKRTEEDLKKGHQKLEEMVTRLDQEVAEVDKNIELLKKKDEELSSALEKMENQSENNDIDEVIIPTAPLYKQILNLYAEENAIEDTIFYLGEALRRGVIDLDVFLKHVRLLSRKQFQLRALMQKARKTAGLSDLY
notes: range 240-391; also called C-terminal fragment of Tsg101; amino acid residues 240-390
binds: [1] | pallid (aa 21-172) | [2] | [3] | [4] | [5] | [6] | [7] | [8]
